# Test results taken from PMC11904528, “Discovery and preclinical development of a SdAb-based CAR-T technology for targeting CD33 in AML” (Molecular Therapy Oncology, 2025).
# Where two headings read alike, the source gives them in different places.
# B1: Nb3 (VHH)
# VHH: EVQLVESGGGLVQAGGSLSLSCAASGRTFSSYVMGWFRQAPGKEREFVAALTWSGGSTYYGDSAKGRFTISRDNAKNTVYLQMNSLKPEDTADYYCAAAALEGGAYHIATMSTYNYWGQGTQVTVSS
# notes: llama VHH; From a phage display library of a llama immunised with CD33; also called SdAb Nb3; source: E. coli expression strains (pETMod, OmpA periplasmic signal), purified (IMAC, IEC)
# B2: Nb8 (VHH)
# VHH: EVQLVESGGGLVQDGGSLRLSCAASGRTFSSYVMGWFRQAPGKEREFVAAITWSGGSTYYADSVKGRFTISRDNAKNTVYLQMNSLKPEDTAVYYCAAFELGGGSYYYPDPNEYDYWGQGTQVTVSS
# notes: llama VHH; From a phage display library of a llama immunised with CD33; also called SdAb Nb8; source: E. coli expression strains (pETMod, OmpA periplasmic signal), purified (IMAC, IEC)
# B3: Nb17 (VHH)
# VHH: QVQLQESGGGLVQTGGSLRLSCAVSGSTFSDYVIGWFRQAPGKERDFVAAITWSGGSTYYADSVKGRFIISRDNAKNTVYLQMNSLKPEGTAVYYCAALQLKGGSYYYPAPEEYSYWGQGTQVTVSS
# notes: llama VHH; From a phage display library of a llama immunised with CD33; also called SdAb Nb17; source: E. coli expression strains (pETMod, OmpA periplasmic signal), purified (IMAC, IEC)
# B4: Nb1 (VHH)
# VHH: QVQLQESGGGLVQVGGSLRLSCAASGRAFSTDIMAWFRQAPGKEREFVAAIKWNADNTYDTNSVKGRFTISRDNAKNTNYLEVNSLKPEDTAVYYCASGFSSRPYSDSDSRKYIYWGQGTQVTVSS
# notes: llama VHH; From a phage display library of a llama immunised with CD33; also called SdAb Nb1; source: E. coli expression strains (pETMod, OmpA periplasmic signal), purified (IMAC, IEC)
# B5: Nb16 (VHH)
# VHH: EVQLVESGGGLVQTGGSLRLSCAASGRTFSPLAMGWFRQAPGREREFVAGITWSGGSLYYGDFVKGRFTISRDAAKNTLYLQMNSLKPEDTAVYYCAARDYSGDSNFQVTRPSEWDHWGQGTQVTVSS
# Assays:
# [1] = molecular target: CD33 recombinant ectodomain (His-tagged) (human) (UniProt P20138); assay: ELISA; CD33-coated plates; SdAbs titrated and detected with anti-HA HRP; relative affinities (EC50)
# Chain of CD33 recombinant ectodomain (His-tagged) (human) (P20138 18-259): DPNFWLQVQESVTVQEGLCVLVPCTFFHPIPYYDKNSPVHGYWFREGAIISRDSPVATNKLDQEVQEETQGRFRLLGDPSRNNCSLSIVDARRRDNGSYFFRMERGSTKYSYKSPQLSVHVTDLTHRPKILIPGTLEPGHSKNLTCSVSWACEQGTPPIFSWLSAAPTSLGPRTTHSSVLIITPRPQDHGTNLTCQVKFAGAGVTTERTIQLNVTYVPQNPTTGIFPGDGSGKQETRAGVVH
# [2] = molecular target: CD33 recombinant ectodomain (His-tagged) (human) (UniProt P20138); assay: SPR; Biacore X100, NTA chip; His-tagged CD33 ectodomain captured on nickel, cross-linked with EDC/NHS, nickel stripped with EDTA (388 RU); SdAbs as analytes at 1,000-12.3 nM; single-cycle kinetics; HBS-EP+; 10 uL/min, contact 300 s, dissociation 600 s; 1:1 binding model
# [3] = molecular target: T1, Biotinylated CD33 (bio-CD33) (Homo sapiens, UniProt P20138, biotin); assay: BLI; Octet N1, streptavidin SAX2 sensors; bio-CD33 immobilised at 100 nM; in-tandem epitope binning: first antibody 400 nM, then a mixture of 400 nM first and 200 nM second antibody; PBS; settings: both partners purified
# T1 construct: CD33 (Siglec-3), biotinylated
# T1 sequence (P20138 whole entry, looked up, tested part not stated): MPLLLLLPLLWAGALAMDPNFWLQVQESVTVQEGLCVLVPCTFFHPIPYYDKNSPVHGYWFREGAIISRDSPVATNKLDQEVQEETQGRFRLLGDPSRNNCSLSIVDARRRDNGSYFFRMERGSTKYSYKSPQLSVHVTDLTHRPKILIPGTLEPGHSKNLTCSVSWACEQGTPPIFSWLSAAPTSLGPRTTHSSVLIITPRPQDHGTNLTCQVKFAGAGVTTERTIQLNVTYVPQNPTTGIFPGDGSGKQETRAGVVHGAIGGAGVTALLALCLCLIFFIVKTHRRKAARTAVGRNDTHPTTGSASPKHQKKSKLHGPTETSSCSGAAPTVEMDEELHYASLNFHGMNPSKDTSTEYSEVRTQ
# [4] = molecular target: T2, CD33 recombinant ectodomain (His-tagged) (Homo sapiens, UniProt P20138); assay: ELISA; CD33-coated plates; SdAbs titrated and detected with anti-HA HRP; relative affinities (EC50)
# T2 construct: CD33 (Siglec-3), human, recombinant ectodomain; The methods name the catalogue number for the immunogen; In SPR it was captured by its His tag on NTA and then cross-linked with EDC/NHS; also called Siglec-3; extracellular domain (ECD) of human CD33; source: bought: SinoBiological #12238-H08H; not shown: His tag, C-terminal, kept
# T2 sequence (P20138 18-259): as the sequence (P20138 18-259) above
# [5] = molecular target: T2, CD33 recombinant ectodomain (His-tagged); assay: SPR; Biacore X100, NTA chip; His-tagged CD33 ectodomain captured on nickel, cross-linked with EDC/NHS, nickel stripped with EDTA (388 RU); SdAbs as analytes at 1,000-12.3 nM; single-cycle kinetics; HBS-EP+; 10 uL/min, contact 300 s, dissociation 600 s; 1:1 binding model
# [6] = molecular target: T2, CD33 recombinant ectodomain (His-tagged)
Binder,EC50 ([4]; both partners purified),Kd ([5]; both partners purified),koff ([5]; both partners purified),kon ([5]; both partners purified),also measured
B1,–,–,–,–,EC50 [1]: 16.7 nM; Kd [2]: 115 nM; koff [2]: 0.0017 s⁻¹; kon [2]: 14700 M⁻¹ s⁻¹; binding result [3]: binds
B2,3.99 nM,14.4 nM,0.000356 s⁻¹,24800 M⁻¹ s⁻¹,–
B3,4.05 nM,4.99 nM,8.24e-05 s⁻¹,16500 M⁻¹ s⁻¹,–
B4,6.4 nM,29.9 nM,0.0011 s⁻¹,36800 M⁻¹ s⁻¹,–
B5,–,–,–,–,EC50 [4]: 1.91 nM; Kd [6]: 4.18 nM; Kd [5]: 4.18 nM; koff [5]: 4.64e-05 s⁻¹; kon [5]: 11100 M⁻¹ s⁻¹
